Assay [1] deals with T1, MOCS2B wild-type (large subunit of MPT synthase) (human, UniProt O96007 1-188).
T1 construct: MOCS2B, large subunit of molybdopterin (MPT) synthase, human; encoded by MOCS2 transcript variant 3 (NM_004531.5); Cloned into pET15b, a vector that can add an N-terminal His tag; also called MOCS2B WT; WT MOCS2B; source: Escherichia coli BL21 (pET15b), purified (ammonium sulfate precipitation, size exclusion chromatography on Superdex 200)
T1 sequence (looked up): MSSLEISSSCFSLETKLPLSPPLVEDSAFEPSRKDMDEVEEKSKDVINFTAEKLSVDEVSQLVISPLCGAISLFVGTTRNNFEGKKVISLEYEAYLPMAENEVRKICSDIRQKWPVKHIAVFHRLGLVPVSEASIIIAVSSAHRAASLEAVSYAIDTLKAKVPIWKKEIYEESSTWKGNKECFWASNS
Nature of the assay: ITC; VP-ITC; 20-50 uM MOCS2B in the sample cell (1.5 mL), 200-500 uM MOCS2A in the syringe; 10 mM Tris-HCl, 250 mM NaCl, pH 8.0; n = 3 experiments. As to conditions: both partners purified. (Isothermal titration calorimetry measures the heat released or taken up as one component is titrated into another.)

Assay [2] concerns the target T2, MOCS2B p.Leu19Phe variant (human, UniProt O96007 1-188, p.Leu19Phe).
T2 construct: MOCS2B, large subunit of molybdopterin (MPT) synthase, human, patient variant c.57A>T (NM_004531.5; p.Leu19Phe), rs776441627; Variant found in patients (natural variant); Cloned into pET15b; also called MOCS2B L19F; MOCS2B Leu19Phe; source: Escherichia coli BL21 (pET15b), purified (ammonium sulfate precipitation, size exclusion chromatography on Superdex 200)
T2 sequence (looked up): T1 sequence (looked up) with L19F
The description is as above. As to conditions: both partners purified.

Assay [3] has as its target T2, MOCS2B p.Leu19Phe variant. In words: cell-based or functional assay.

By Kd is commonly meant the free concentration of one partner at which half of the binding sites on the other are occupied at equilibrium, for simple one-to-one binding. Low readings indicate higher affinity, high ones lower affinity. Usually stoichiometry N stands for the number of molecules, sites or subunits per partner or assembly.

Substitutions are numbered along the chain they refer to. Names and notes keep the numbering of the source.

B1: MOCS2A wild-type (small subunit of MPT synthase) (natural protein, human, UniProt O96033 1-88, looked up)
chain: MVPLCQVEVLYFAKSAEITGVRSETISVPQEIKALQLWKEIETRHPGLADVRNQIIFAVRQEYVELGDQLLVLQPGDEIAVIPPISGG
modifications: thiocarboxylated C-terminal tail
notes: MOCS2A, small subunit of molybdopterin (MPT) synthase, human; encoded by MOCS2 transcript variant 1 (NM_176806.4); also called MOCS2A WT; WT MOCS2A
As to B1, the Kd in assay [1] worked out at 359 ± 47 nM; in assay [2], 114 ± 16 nM. The “stoichiometry N” value in assay [1] was found to be 1.15 ± 0.2.

B2: MOCS2A p.Ile82Phe variant (natural protein, human, UniProt O96033 1-88, looked up)
chain: B1 chain with I82F
modifications: thiocarboxylated C-terminal tail
notes: MOCS2A, small subunit of molybdopterin (MPT) synthase, human, patient variant c.244A>T (NM_176806.4; p.Ile82Phe), rs776441627; Variant found in patients (natural variant); also called MOCS2A I82F; MOCS2 p.Ile82Phe
With B2, the “in vitro MPT synthesis activity (500 pmol cPMP, 200 pmol MOCS2B, 0-500 pmol MOCS2A; HPLC Form A method), relative to WT MOCS2A/B” value in assay [3] is ~20 % of WT. The results for the Kd in assay [1] and in assay [2] were 2800 ± 300 nM and 7400 ± 2100 nM, respectively.

Source of the values: publication PMC12289762, “A prevalent MOCS2 variant in the Roma population is associated with a novel mild form of molybdenum cofactor deficiency” (European Journal of Pediatrics, 2025).
